Measurements: patent US20210230294A1 (Incyte, published 2021)
Where a chain is given by its changes, count along the chain named. Names and notes keep the numbering of the source.

B1: 3-F03 (full-length human antibody) (antibody, human IgG1, kappa, N297A)
heavy: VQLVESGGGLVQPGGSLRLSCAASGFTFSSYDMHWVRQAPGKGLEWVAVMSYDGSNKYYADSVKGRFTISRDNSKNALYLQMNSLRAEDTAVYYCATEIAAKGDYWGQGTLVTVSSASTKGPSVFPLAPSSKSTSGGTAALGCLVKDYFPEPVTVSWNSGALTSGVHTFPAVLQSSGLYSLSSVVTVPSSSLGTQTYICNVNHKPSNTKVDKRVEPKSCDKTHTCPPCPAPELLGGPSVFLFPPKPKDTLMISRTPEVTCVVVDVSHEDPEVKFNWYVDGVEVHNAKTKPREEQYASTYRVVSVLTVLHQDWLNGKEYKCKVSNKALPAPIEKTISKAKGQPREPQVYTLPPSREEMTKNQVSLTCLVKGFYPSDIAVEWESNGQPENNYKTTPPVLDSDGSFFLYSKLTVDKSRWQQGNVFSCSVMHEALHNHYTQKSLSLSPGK
light: IQMTQSPSSLSASVGDRVTITCRASQGISNYLAWYQQKPGKAPKLLIYAASTLQSGVPSRFSGSGSGTDFTLTISSLQPEDFATYYCQQSYSTPHFGQGTRLEIKRTVAAPSVFIFPPSDEQLKSGTASVVCLLNNFYPREAKVQWKVDNALQSGNSQESVTEQDSKDSTYSLSSTLTLSKADYEKHKVYACEVTHQGLSSPVTKSFNRGEC
notes: Human IgG1/kappa with N297A; also called Antibody 3-F03; Clone 3-F03
B2: CL25_hu_11-4 (antibody, V domains shown)
VH: QVQLVQSGAEVKKPGASVKVSCKASGYTFTSYGLSWVRQATGQGLEWMGEIYPGSGNTYYNEKFKGRVTMTANTSISTAYMELSSLRSEDTAVYYCARYDYLGSSYGFDYWGAGTTVTVSS
VL: DIQMTQSPSSLSASVGDRVTITCKASQDVSTAVAWYQQKPGKAPKLLLYSASYRYSGVPSRFSGSGSGTDYTLTISSLQPEDFATYYCQQHYNTPYTFGGGTKLEIK
notes: Humanized CL25 antibody
B3: 3-F03_411 (antibody, human IgG1, kappa, N297A)
heavy: not shown
light: B1 light
B4: HzCL25 (antibody, human IgG1, kappa, N297A, V domains shown)
VH: EVQLVQSGAEVKKPGESLKISCKGSGYTFTSYGLSWVRQMPGKGLEWMGEIYPGSGNTYYNEKFKGQVTISADKSISTAYLQWSSLKASDTAMYYCARYDYLGSSYGFDYWGAGTTVTVSS
VL: DIVMTQSPDSLAVSLGERATINCKASQDVSTAVAWYQQKPGQPPKLLIYSASYRYSGVPDRFSGSGSGTDFTLTISSLQAEDVAVYYCQQHYNTPYTFGGGTKLEIKR
notes: Humanized IgG1/kappa with N297A; also called humanized CL25
B5: CL25_hu_11-5 (antibody, V domains shown)
VH: B2 VH
VL: DIVMTQSPDSLAVSLGERATINCKASQDVSTAVAWYQQKPGQPPKLLIYSASYRYSGVPDRFSGSGSGTDFTLTISSLQAEDVAVYYCQQHYNTPYTFGGGTKLEIK
notes: Humanized CL25 antibody
B6: CL25_hu_10-4 (antibody, V domains shown)
VH: B4 VH
VL: B2 VL
notes: Humanized CL25 antibody
B7: CL25_hu_9-6 (antibody, V domains shown)
VH: B2 VH with A16S, T41P, M70I, N73D, T74E, I76T
VL: B2 VL with D1A, Q3R, L11F, V15T, L48I, Y71F, S77C, P80S
notes: Humanized CL25 antibody
B8: CL25_hu_8-6 (antibody, V domains shown)
VH: B2 VH with A72R
VL: B2 VL with D1A, Q3R, L11F, V15T, L48I, Y71F, S77C, P80S
notes: Humanized CL25 antibody
B9: CL25_hu_9-4 (antibody, V domains shown)
VH: B2 VH with A16S, T41P, M70I, N73D, T74E, I76T
VL: B2 VL
notes: Humanized CL25 antibody
B10: CL25_hu_8-4 (antibody, V domains shown)
VH: B2 VH with A72R
VL: B2 VL
notes: Humanized CL25 antibody; captured by anti-human Fc in SPR
B11: CL25_hu_8-5 (antibody, V domains shown)
VH: B2 VH with A72R
VL: B5 VL
notes: Humanized CL25 antibody
B12: CL25_hu_9-5 (antibody, V domains shown)
VH: B2 VH with A16S, T41P, M70I, N73D, T74E, I76T
VL: B5 VL
notes: Humanized CL25 antibody
B13: CL25_hu_10-6 (antibody, V domains shown)
VH: B4 VH
VL: B2 VL with D1A, Q3R, L11F, V15T, L48I, Y71F, S77C, P80S
notes: Humanized CL25 antibody
B14: CL25_hu_11-6 (antibody, V domains shown)
VH: B2 VH
VL: B2 VL with D1A, Q3R, L11F, V15T, L48I, Y71F, S77C, P80S
notes: Humanized CL25 antibody

Biological target: T1, human CD73 on the cell surface (MDA-MB-231 and A375 cells) (human, UniProt P21589 27-549)
T1 construct: also called cell surface CD73; cellular CD73
T1 sequence: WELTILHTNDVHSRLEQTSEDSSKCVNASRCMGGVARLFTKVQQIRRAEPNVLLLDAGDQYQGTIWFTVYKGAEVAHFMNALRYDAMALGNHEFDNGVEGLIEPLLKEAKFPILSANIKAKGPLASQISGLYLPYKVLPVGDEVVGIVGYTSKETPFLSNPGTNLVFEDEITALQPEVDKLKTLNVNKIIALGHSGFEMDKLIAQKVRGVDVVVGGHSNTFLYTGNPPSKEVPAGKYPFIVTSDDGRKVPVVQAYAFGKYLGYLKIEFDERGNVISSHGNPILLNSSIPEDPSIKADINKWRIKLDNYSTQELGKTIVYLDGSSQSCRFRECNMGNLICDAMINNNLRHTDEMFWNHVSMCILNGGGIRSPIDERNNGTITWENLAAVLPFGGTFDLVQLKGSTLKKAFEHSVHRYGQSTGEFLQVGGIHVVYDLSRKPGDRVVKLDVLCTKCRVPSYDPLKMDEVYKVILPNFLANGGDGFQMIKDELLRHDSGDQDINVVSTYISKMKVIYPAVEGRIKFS
Assay: flow cytometry on MDA-MB-231 cells, PE-conjugated secondary antibody, GMFI

B1 was tested, and the “EC50 (read off the curve)” value was roughly 3 µg/mL.

Biological target: T1, human CD73 on the cell surface …
Assay: as above
Remark: another data set of the same source
Method: The cells were stained with the indicated concentration of antibodies for 30 minutes on ice (FIG. 2A and FIG. 2B). Next, the cells were washed and stained using goat anti-mouse secondary conjugated to phycoerythrin (PE) for 30 minutes on ice. The cells were then washed and analyzed by flow cytometry. Geometric mean fluorescence intensity (GMFI) of CD73 staining was graphed (FIG. 2A and FIG. 2B).

B2 was tested, and the “EC50 (read off the curve)” value was roughly 0.1 µg/mL.

Biological target: T1, human CD73 on the cell surface …
Assay: flow cytometry on A375 cells, PE-conjugated secondary antibody, GMFI

For B1, the “EC50 (read off the curve)” value was roughly 0.1 µg/mL.

Biological target: T1, human CD73 on the cell surface …
Assay: flow cytometry on MDA-MB-231 cells, PE-conjugated secondary antibody, GMFI
Remark: another data set of the same source
Method: Cells were stained with the indicated concentration of antibodies for 1 hour on ice. Cells were then washed and stained goat anti-mouse secondary conjugated to PE for 30 minute on ice. Cells were then washed and analyzed by flow cytometry. The GMFI of CD73 staining is graphed (FIG. 13).

For B3, the “EC50 (read off the curve)” value was roughly 1 µg/mL.

Biological target: T2, mouse CD73 (SEQ ID NO:71) (mouse, UniProt Q61503 29-551)
T2 construct: Open conformation (normal SPR running buffer); also called Murine; murine CD73
T2 sequence: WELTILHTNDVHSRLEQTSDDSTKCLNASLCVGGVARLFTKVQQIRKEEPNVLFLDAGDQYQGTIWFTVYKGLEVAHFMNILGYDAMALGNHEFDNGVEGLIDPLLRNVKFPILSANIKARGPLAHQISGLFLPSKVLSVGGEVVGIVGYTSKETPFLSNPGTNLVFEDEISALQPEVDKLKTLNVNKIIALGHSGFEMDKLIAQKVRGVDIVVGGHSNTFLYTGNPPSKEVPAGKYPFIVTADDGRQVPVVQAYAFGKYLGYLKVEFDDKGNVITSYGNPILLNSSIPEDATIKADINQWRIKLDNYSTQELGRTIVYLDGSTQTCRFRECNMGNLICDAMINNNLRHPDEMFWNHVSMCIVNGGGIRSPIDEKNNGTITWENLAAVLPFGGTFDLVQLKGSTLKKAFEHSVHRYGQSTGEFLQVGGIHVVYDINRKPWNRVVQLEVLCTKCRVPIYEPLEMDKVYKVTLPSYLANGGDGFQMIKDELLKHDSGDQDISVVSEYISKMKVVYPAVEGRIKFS
Assay: SPR (Biacore 8K), antibody captured on anti-human Fc, CD73 as analyte, open conformation
Method: (§1) The SPR running buffer (10 mM HEPES, 150 mM NaCl, 3 mM EDTA and 0.05% v/v Surfactant P20, pH 7.4) was prepared from 10×HBS-EP Buffer (GE Healthcare). Anti-human Fc antibodies (GE Healthcare) were immobilized via amine coupling on all sixteen flow cells of an S series sensor chip CM5 (GE Healthcare). The immobilization levels were ˜9000 RU for all flow cells. […] The non-cleavable ADP analogue APCP (adenosine-5′-(α,β-methylene) diphosphate) with the presence of Zn²⁺ can be used to shift the CD73 conformational equilibrium from open towards closed. Therefore, recombinant CD73 was incubated with SPR running buffer in the presence of 100 μM APCP and 10 μM ZnCl₂ (closed SPR running buffer) to study the binding of anti-CD73 antibody to the CD73 in the closed conformation. To achieve this, the ABA injection feature in Biacore 8K was used. For open conformation, the ABA injection sequence started with 60 seconds injection of running buffer. Then, CD73 3-fold serial dilution concentration series prepared from CD73 stock (BPS Bioscience) and running buffer were injected for 180 seconds immediately followed by running buffer for 240 seconds. For closed conformation, the normal SPR running buffer was replaced by closed SPR running buffer. Surface was regenerated with 30 seconds injection of 3 M MgCl₂.

B1 showed a Kd of 1.66 nM.

B4: no binding.

Biological target: T3, recombinant human CD73 (SEQ ID NO:70) (human, UniProt P21589 27-549)
T3 construct: Soluble recombinant protein in normal SPR running buffer (open conformation), the soluble enzyme assay and HDX-MS; SPR stock bought from BPS Bioscience; also called rhuCD73; CD73 in the open conformation
T3 sequence: T1 sequence
Assay: as above
Method: as §1

First: B1
Second: B2
The Kd of the first is 6.7-fold lower: 0.37 nM for the first, 2.48 nM for the second.

B5 and B6 are within 1.5-fold of each other in Kd: 1.46 nM for the first, 1.2 nM for the second.

B7 and B8 are within 1.5-fold of each other in Kd: 2.25 nM for the first, 1.55 nM for the second.

Compared with B9, B10 is 3-fold lower in Kd: 6.9 nM for the first, 2.29 nM for the second.

Compared with B11, B12 is 2.8-fold higher in Kd: 0.718 nM for the first, 2.02 nM for the second.

B13 and B14 are within 1.5-fold of each other in Kd: 1.75 nM for the first, 1.84 nM for the second.

Binder B4 has a Kd of less than 0.449 nM.

B2 and B5 are within 1.5-fold of each other in koff: 0.00155 s⁻¹ for the first, 0.00117 s⁻¹ for the second.

B6 and B7 are within 1.5-fold of each other in koff: 0.00107 s⁻¹ for the first, 0.000953 s⁻¹ for the second.

Compared with B8, B9 is 2.4-fold higher in koff: 0.00111 s⁻¹ for the first, 0.00264 s⁻¹ for the second.

Going from B10 to B11, the koff falls from 0.00176 s⁻¹ to 0.000949 s⁻¹ (1.9-fold).

B12 and B13 are within 1.5-fold of each other in koff: 0.00114 s⁻¹ for the first, 0.00092 s⁻¹ for the second.

First: B14
Second: B4
The koff of the first is 2.2-fold higher: 0.00101 s⁻¹ for the first, 0.000449 s⁻¹ for the second.

B2 and B5 are within 1.5-fold of each other in kon: 624000 M⁻¹ s⁻¹ for the first, 799000 M⁻¹ s⁻¹ for the second.

Compared with B6, B7 is 2.1-fold lower in kon: 887000 M⁻¹ s⁻¹ for the first, 424000 M⁻¹ s⁻¹ for the second.

Going from B8 to B9, the kon falls from 715000 M⁻¹ s⁻¹ to 382000 M⁻¹ s⁻¹ (1.9-fold).

First: B10
Second: B11
The kon of the first is lower: 770000 M⁻¹ s⁻¹ for the first, greater than 1e+06 M⁻¹ s⁻¹ for the second.

B12 and B13 are within 1.5-fold of each other in kon: 565000 M⁻¹ s⁻¹ for the first, 524000 M⁻¹ s⁻¹ for the second.

Going from B14 to B4, the kon rises from 550000 M⁻¹ s⁻¹ to greater than 1e+06 M⁻¹ s⁻¹.

Biological target: T4, cynomolgus CD73 (SEQ ID NO:72) (cynomolgus, UniProt P21589 27-549 (human entry))
T4 construct: Open conformation (normal SPR running buffer)
T4 chain: T1 sequence with M199T, T350A, V466I
Assay: as above
Method: as §1

First: B1
Second: B4
The Kd of the first is higher: 0.734 nM for the first, less than 0.468 nM for the second. The second binds more tightly here.

With B4 the koff was 0.000468 s⁻¹.

B4 was tested, and the kon was greater than 1e+06 M⁻¹ s⁻¹.
